B1: HDV Ribozyme (parent)
chain: GGCCGGCAUGGUCCCAGCCUCCUCGCUGGCGCCGGCUGGGCAACAUUCCGAGGGGACCGUCCCCUCGGUAAUGGCGAAUGGGACCCA

Variants of: B1
Assay: self-cleavage, relative activity (ratio to wild type); higher = more cleavage; co-transcriptional

Compared with GGCCGGCAUGGUCCCAGCCUCCUCGCUGUCGCCGGCUGGGCAACAUUCAGAGGGGACCGUCCCCUCGGUAAUGGCGAAUGGGACCCA, GGCCGGCAUGGUCCCAGCCUCCUCGCUGUCGCCGGCUGGGCAACAUUCUGAGGGGACCGUCCCCUCGGUAAUGGCGAAUGGGACCCA is lower in self-cleavage: 0.111 for the first, 0.0583 for the second.

Going from GGCCGGCAUGGUCCCAGCCUCCUCGCUGUCGCCGGCUGGGCAACAUUCCGAGGGGAUCGUCCCCUCGGUAAUGGCGAAUGGGACCCA to GGCCGGCAUGGUCCCAGCCUCCUCGCUGUCGCCGGCUGGUCAACAUUCCGAGGGGACCGUCCCCUCGGUAAUGGCGAAUGGGACCCA, the self-cleavage rises from 0.0911 to 0.0923.

Going from GGCCGGCAUGGUCCCAGCCUCCUCGCUGUCGCCGGCUGGGCAACAUUCCGAGGGGACCGUCCCCUUGGUAAUGGCGAAUGGGACCCA to GGCCGGCAUGGUCCCAGCCUCCUCGCUGUCGCCGGCUGCGCAACAUUCCGAGGGGACCGUCCCCUCGGUAAUGGCGAAUGGGACCCA, the self-cleavage falls from 0.147 to 0.0302.

First: GGCCGGCAUGGUCCCAGCCUCCUCGCUGUCGCCGGCUGGGCAACUUUCCGAGGGGACCGUCCCCUCGGUAAUGGCGAAUGGGACCCA
Second: GGCCGGCAUGGUCCCAGCCUCCUCGCUGUCGCCGGCUGGGCAACAUUCCGAGGGGACCGUCCCCUCGGUAAUGGCGAGUGGGACCCA
The self-cleavage of the first is lower: 0 for the first, 0.0378 for the second.

First: GGCCGGCAUGGUCCCAGCCUCCUCGCUGUCGCCGGCUGGGCAACAUUCCGAGGGGACCGUCCCCUCGGUAAUGGCGAUUGGGACCCA
Second: GGCCGGCAUGGUCCCAGCCUCCUCGCUGUCGCCGGCUGGGCAACAUUCCGAGGGGACCGUCCCCUCGGUAUUGGCGAAUGGGACCCA
The self-cleavage of the first is lower: 0.0287 for the first, 0.0831 for the second.

Going from GGCCGGCAUGGUCCCAGCCUCCUCGCUGUCGCCGGCUGGGCAACAUUCCGAGGGGACCGUCCCCUCGGUAAUGGCGAAUGGGAACCA to GGCCGGCAUGGUCCCAGCCUCCUCGCUGUCGCCGGCUGGGCAACAUUCCGAGGGGACCGUCCCCUCGGUAAUGGCGAAUGGGACCCA, the self-cleavage falls from 0.117 to 0.0885.

Going from GGCCGGCAUGGUCCCAGCCUCCUCGCUGUCGCCGGCUGGGCAACAUUCCGAGGGGACCGUCCCCUCGGUAAUGGCGAAUGGGACCUA to GGCCGGCAUGGUCCCAGCCUCCUCGCUGUCGCCGGCUGGGGAACAUUCCGAGGGGACCGUCCCCUCGGUAAUGGCGAAUGGGACCCA, the self-cleavage falls from 0.0959 to 0.0302.

Going from GGCCGGCAUGGUCCCAGCCUCCUCGCUGUCGCCGGCUGGGUAACAUUCCGAGGGGACCGUCCCCUCGGUAAUGGCGAAUGGGACCCA to GGCCGGCAUGGUCCCAGCCUCCUCGCUGUCGCCGGCUGGGCAACAUUCCGAGGGGACCGUCCCCUCGGUAAUGGCGAAUGGGACCCC, the self-cleavage falls from 0.0432 to 0.0349.

Compared with GGCCGGCAUGGUCCCAGCCUCCUCGCUGUCGCCGGCUGGGCAACAUUCCGAGGGGACCGUCCCCUCGGUAAUGGCGAAUGGGACCCG, GGCCGGCAUGGUCCCAGCCUCCUCGCUGUCGCUGGCUGGGCAACAUUCCGAGGGGACCGUCCCCUCGGUAAUGGCGAAUGGGACCCA is lower in self-cleavage: 0.0585 for the first, 0.0563 for the second.

First: GGCCGGCAUGGUCCCAGCCUCCUCGCUGUCGCCGGCUGGGCAACAUUCCGAGGGGACCGUCCCCUCGGUAAUGGCGAAUGGGACGCA
Second: GGCCGGCAUGGUCCCAGCCUCCUCGCUGUCGCCGGCUGGGCAACAUUCCGAGGGGACCGUCCCCUCGGUAAUGGCGAAUGGGACUCA
The self-cleavage of the first is lower: 0 for the first, 0.086 for the second.

Compared with GGCCGGCAUGGUCCCAGCCUCCUCGCUGUCGCCGGCUGGGCAACAUUCCGAGGGGACCGUGCCCUCGGUAAUGGCGAAUGGGACCCA, GGCCGGCAUGGUCCCAGCCUCCUCGCUGUCGCCGGCUGGGCAACAUUCCGAUGGGACCGUCCCCUCGGUAAUGGCGAAUGGGACCCA is lower in self-cleavage: 0.203 for the first, 0.0875 for the second.

Compared with GGCCGGCAUGGUCCCAGCCUCCUCGCUGUCGCCGGCUGGGCUACAUUCCGAGGGGACCGUCCCCUCGGUAAUGGCGAAUGGGACCCA, GGCCGGCAUGGUCCCAGCCUCCUCGCUGUCGCCGGCUGGGCGACAUUCCGAGGGGACCGUCCCCUCGGUAAUGGCGAAUGGGACCCA is higher in self-cleavage: 0.102 for the first, 0.148 for the second.

Compared with GGCCGGCAUGGUCCCAGCCUCCUCGCUGUCACCGGCUGGGCAACAUUCCGAGGGGACCGUCCCCUCGGUAAUGGCGAAUGGGACCCA, GGCCGGCAUGGUCCCAGCCUCCUCGCUGUCUCCGGCUGGGCAACAUUCCGAGGGGACCGUCCCCUCGGUAAUGGCGAAUGGGACCCA is lower in self-cleavage: 0.135 for the first, 0.0804 for the second.

First: GGCCGGCAUGGUCCCAGCCUCCUCGCUGUCGCCGGCUGGGCAACAUUCCUAGGGGACCGUCCCCUCGGUAAUGGCGAAUGGGACCCA
Second: GGCCGGCAUGGUCCCAGCCUCCUCGCUGUCGCCGGCUGGGCAACAUUCCGAGUGGACCGUCCCCUCGGUAAUGGCGAAUGGGACCCA
The self-cleavage of the first is higher: 0.12 for the first, 0.0213 for the second.

First: GGCCGGCAUGGUCCCAGCCUCCUCGCUGUCGCCGGCUGGGCAGCAUUCCGAGGGGACCGUCCCCUCGGUAAUGGCGAAUGGGACCCA
Second: GGCCGGCAUGGUCCCAGCCUCCUCGCUGUAGCCGGCUGGGCAACAUUCCGAGGGGACCGUCCCCUCGGUAAUGGCGAAUGGGACCCA
The self-cleavage of the first is lower: 0.131 for the first, 0.155 for the second.

Going from GGCCGGCAUGGUCCCAGCCUCCUCGCUGUGGCCGGCUGGGCAACAUUCCGAGGGGACCGUCCCCUCGGUAAUGGCGAAUGGGACCCA to GGCCGGCAUGGUCCCAGCCUCCUCGCUGUCGCCGGCUGGGCAACAUUCCGAGGGGACCGUCCUCUCGGUAAUGGCGAAUGGGACCCA, the self-cleavage falls from 0.0923 to 0.
